Positions count from the first letter of the chain named.
B1: p21 site 32-mer (dsDNA)
DNA 1: TAGAGCGAACATGTCCCAACATGTTGGCGTCG
DNA 2: CGACGCCAACATGTTGGGACATGTTCGCTCTA
B2: 66-bp circular wild-type GADD45 (dsDNA)
DNA 1: AGCTGATATCGAATTCTCGAGCAGAACATGTCTAAGCATGCTGGGCTCGAGAATTCCTGCAGCGCT
DNA 2: AGCGCTGCAGGAATTCTCGAGCCCAGCATGCTTAGACATGTTCTGCTCGAGAATTCGATATCAGCT
B3: 66-bp circular mutant GADD45 (dsDNA)
DNA 1: B2 DNA 1 with C27A, G30T, C37A, G40T
DNA 2: B2 DNA 2 with C27A, G30T, C37A, G40T

Assays:
p53 wild-type [1] = target: T1, p53 wild-type (UniProt P04637 1-393); experiment: filter binding
T1 sequence (P04637 whole entry): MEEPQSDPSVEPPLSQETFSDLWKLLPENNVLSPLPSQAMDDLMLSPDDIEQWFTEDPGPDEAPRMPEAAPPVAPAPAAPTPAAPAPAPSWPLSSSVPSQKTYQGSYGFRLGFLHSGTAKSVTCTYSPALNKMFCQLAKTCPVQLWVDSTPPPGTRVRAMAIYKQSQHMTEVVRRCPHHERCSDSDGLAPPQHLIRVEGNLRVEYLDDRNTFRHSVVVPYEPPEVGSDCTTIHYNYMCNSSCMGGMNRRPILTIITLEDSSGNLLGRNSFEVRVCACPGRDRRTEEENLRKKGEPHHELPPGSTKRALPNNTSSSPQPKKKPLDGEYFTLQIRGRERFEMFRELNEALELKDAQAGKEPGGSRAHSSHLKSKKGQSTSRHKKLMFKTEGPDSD

p53 wild-type [2] = target: T1, p53 wild-type; experiment: EMSA

| Binder | binding signal (p53 wild-type [1]) | binding signal (p53 wild-type [2]) |
| --- | --- | --- |
| B1 | 1 fold (reference) | – |
| B2 | – | 1 fold (reference) |
| B3 | – | 1 fold (reference) |

From PMC2898518
